Kd data for four substances are collected here from publication PMC8409790.

In this experiment the target is FcRn/β2 microglobulin (UniProt P55899). The experiment in a line: SPR. (In general: SPR reads the build-up and loss of mass on a sensor chip optically.)
Sequence of FcRn/β2 microglobulin (P55899 24-365, chain 1 of 2): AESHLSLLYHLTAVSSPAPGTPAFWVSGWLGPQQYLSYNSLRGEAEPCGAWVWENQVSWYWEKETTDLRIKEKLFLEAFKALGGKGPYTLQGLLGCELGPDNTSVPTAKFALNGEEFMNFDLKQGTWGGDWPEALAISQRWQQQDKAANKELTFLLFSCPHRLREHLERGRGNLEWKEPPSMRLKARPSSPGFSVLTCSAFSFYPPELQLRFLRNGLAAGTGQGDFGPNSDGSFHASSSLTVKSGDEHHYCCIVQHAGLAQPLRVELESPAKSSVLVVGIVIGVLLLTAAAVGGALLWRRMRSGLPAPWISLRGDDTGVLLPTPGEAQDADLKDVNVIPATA
Sequence of FcRn/β2 microglobulin (P61769 21-119, chain 2 of 2, further chain): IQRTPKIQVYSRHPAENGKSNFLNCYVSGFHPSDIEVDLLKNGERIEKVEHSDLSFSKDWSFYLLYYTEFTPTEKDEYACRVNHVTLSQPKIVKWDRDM

For orientation: Kd means a measure of binding affinity in units of concentration. A higher Kd goes with lower affinity. In turn, Guselkumab (antibody) came in with a Kd of 5 µM.
The result for Risankizumab (antibody) reads 5 µM; that for Tildrakizumab (antibody), 5 µM; that for Ustekinumab (antibody), 5 µM.
